System: STAT6
Assay: Screening of full-length cDNA clones for promotion of STAT6 activation (luciferase reporter N4×8-luc)
Type: cell-based
Details: NIH3T3 cells cotransfected with N4×8-luc reporter and cDNA plasmid; 48 h culture, then mouse IL-4 0.5 ng/ml for 6 h
Summary of the method: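 Promotion of STAT6 activation scored as increase in luciferase signal over null-vector control cells. NIH3T3 cells carried N4×8-luc (100 ng) plus cDNA clone; after 48 h culture, 6 h stimulation with 0.5 ng/ml (final) mouse IL-4 preceded reading.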

| Molecule | Activity = (luciferase activity of the gene of each SEQ ID NO:)/(luciferase activity of pME18S-FL3) |
| --- | --- |
| 117 (nucleic acid, listed as Homo sapiens, CDS (9)..(755)) GAGCGGCGATGCCGGGGCGGCGGCGCCCGAGTCCGGAGCCCGAGCCCGAAGAGGAGCCGCCCCGGCCCCGCGCCCCCCCGGGAGCTCCGGGCCCTGGGCCTGGTTCGGGAGCCCCCGGCAGCCAAGAGGAGGAGGAGGAGCCGGGACTGGTCGAGGGTGACCCGGGGGACGGCGCCATTGAGGACCCGGAGCTGGAAGCTATCAAAGCTCGAGTCAGGGAGATGGAGGAAGAAGCTGAGAAGCTAAAGGAGCTACAGAACGAGGTAGAGAAGCAGATGAATATGAGTCCACCTCCAGGCAATGCTGGCCCGGTGATCATGTCCATTGAGGAGAAGATGGAGGCTGATGCCCGTTCCATCTATGTTGGCAATGTGGACTATGGTGCAACAGCAGAAGAGCTGGAAGCTCACTTTCATGGCTGTGGTTCAGTCAACCGTGTTACCATACTGTGTGACAAATTTAGTGGCCATCCCAAAGGGTTTGCGTATATAGAGTTCTCAGACAAAGAGTCAGTGAGGACTTCCTTGGCCTTAGATGAGTCCCTATTTAGAGGAAGGCAAATCAAGGTGATCCCAAAACGAACCAACAGACCAGGCATCAGCACAACAGACCGGGGTTTTCCACGAGCCCGCTACCGCGCCCGGACCACCAACTACAACAGCTCCCGCTCTCGATTCTACAGTGGTTTTAACAGCAGGCCCCGGGGTCGCGTCTACAGGGGCCGGGCTAGAGCGACATCATGGTATTCCCCTTACTAAAAAAAGTGTGTATTAGGAGGAGAGAGAGGAAAAAAAGAGGAAAGAAGGAAAAAAAAAAGAATTAAAAAAAAAAAAAAGAAAAAC | 10.1 |
| 417 (nucleic acid, listed as Homo sapiens, CDS (69)..(632)) ATTCCTCCCAGGGACCCCAGACCTCTGTCTCTCTCGGCAGGCCTTGGCTCCTTGAACTTTTGGCCGCCATGTACTTCCCGAAGGTCCTCTCTGATGACATGAAGAAGCTGAAGGCCCGAATGCACCAGGCCATAGAAAGATTTTATGATAAAATGCAAAATGCAGAATCAGGACGTGGACAGGTGATGTCGAGCCTGGCAGAGCTGGAGGACGACTTCAAAGAGGGCTACCTGGAGACAGTGGCGGCTTATTATGAGGAGCAGCACCCAGAGCTCACTCCTCTACTTGAAAAAGAAAGAGATGGATTACGGTGCCGAGGCAACAGATCCCCTGTCCCGGATGTTGAGGATCCCGCAACCGAGGAGCCTGGGGAGAGCTTTTGTGACAAGGTCATGAGATGGTTCCAGGCCATGCTGCAGCGGCTGCAGACCTGGTGGCACGGGGTTCTGGCCTGGGTGAAGGAGAAGGTGGTGGCCCTGGTCCATGCAGTGCAGGCCCTCTGGAAACAGTTCCAGAGTTTCTGCTGCTCTCTGTCAGAGCTCTTCATGTCCTCTTTCCAGTCCTACGGAGCCCCACGGGGGGACAAGGAGGAGCTGACACCCCAGAAGTGCTCTGAACCCCAATCCTCAAAATGAAGATACTGACACCACCTTTGCCCTCCCCGTCACCGCGCACCCACCCTGACCCCTCCCTCAGCTGTCCTGTGCCCCGCCCTCTCCCGCACACTCAGTCCCCCTGCCTGGCGTTCCTGCCGCAGCTCTGACCTGGTGCTGTCGCCCTGGCATCTTAATAAAACCTGCTTATACTTCCCTGGC | 13.4 |
| 397 (nucleic acid, listed as Homo sapiens, CDS (5)..(445)) ACAGATGAAACTTTTTAGGTCTCAAAGAAATCTTTACATTTCTGGATTTTCCCTATTTTTTTGGCTAGTTTTGAGACGTCTGGTTACGCTTATTACTCAACTGGCAAAAGAACTGTCAAACAAAGGTGTACTTAAAACTCAAGCAGAAAATACTAACAAGGCTGCCAAAAAATTTATGGAAGAAAACGAAAAACTAAAAAGGATTTTGAAAAGCCATGGTAAAGATGAAGAATGTGTTTTGGAAGCAGAAAATAAAAAACTAGTAGAAGACCAGGAGAAACTGAAAACTGAATTAAGGAAGACTTCAGATGCCCTTTCTAAGGCACAAAATGATGTGATGGAAATGAAGATGCAGTCAGAGAGACTTTCGAAAGAATATGATCAACTCCTGAAAGAACACTCTGAACTTCAGGATCGTTTAGAAAGAGGCAACAAGAAAAGACTGTGAACTTTATAAAAGACACTTGCAATATACTGTGTCAAAATGATAATTTTGTTATGTTAGCCTCTAGAAAATTTAAGTTCAGAAAAATGCACTATGACCGGTTCGTAATTTTTTTAATGCCACACATAGGTTGTATTGTAATGGCATTATCAAAATATTTGATGATGTTTCAGATATATTGCAAAGTCTGTATTCCAGCTCTTAAGAAAAATATAAGCATGTTAAATACCATATTTACATATTGATAATGTCATTGGTATATGGTGGCTGTTTACCAATAAAAGGAAAAAATTCATT | 32.6 |
| 413 (nucleic acid, listed as Homo sapiens, CDS (25)..(1014)) GAGGAGGCCGCGCCAGTGACAGCGATGGCGGCGGAGTCGGCGCTCCAAGTTGTGGAGAAGCTGCAGGCGCGCCTGGCCGCGAACCCGGACCCTAAGAAGCTATTGAAATATTTGAAGAAACTCTCCACCCTGCCTATTACAGTAGACATTCTTGCGGAGACTGGGGTTGGGAAAACAGTAAATAGCTTGCGAAAACACGAGCATGTTGGAAGCTTTGCCAGGGACCTAGTGGCCCAGTGGAAGAAGCTGGTTCCTGTGGAACGAAATGCTGAGCCTGATGAACAGGACTTTGAGAAGAGCAATTCCCGAAAGCGCCCTCGGGATGCCCTGCAGAAGGAGGAGGAGATGGAGGGGGACTACCAAGAAACCTGGAAAGCCACGGGGAGCCGATCCTATAGCCCTGACCACAGGCAGAAGAAACATAGGAAACTCTCGGAGCTCGAGAGACCTCACAAAGTGTCTCACGGTCATGAGAGGAGAGATGAGAGAAAGAGGTGTCACAGAATGTCACCAACTTACTCTTCAGACCCTGAGTCTTCTGATTATGGCCATGTTCAATCCCCTCCATCTTGTACCAGTCCTCATCAGATGTACGTCGACCACTACAGATCCCTGGAGGAGGACCAGGAGCCCATTGTTTCACACCAGAAGCCTGGGAAAGGCCACAGCAATGCCTTTCAGGACAGACTCGGGGCCAGCCAAGAACGACACCTGGGTGAACCCCATGGGAAAGGGGTTGTGAGTCAAAACAAGGAGCACAAATCTTCCCACAAGGACAAACGCCCCGTGGATGCCAAGAGTGATGAGAAGGCCTCTGTGGTGAGCAGAGAGAAATCACACAAGGCCCTCTCCAAAGAGGAGCCGGCCTATGATGGCCCAAGCACCAGCAGTGCCCACTTGGCACCAGTGGTCAGCAGCACTGTTTCCTATGATCCTAGGAAACCCACTGTGAAGAAAATTGCCCCAATGATGGCCAAGACAATTAAAGCTTTCAAGAACAGATTCTCCCGACGATAAACTGAGGACTTGCCTTGGAAATGGAATCTGGGGAGGCAGGAATACAAGGACAGTGGGGGTTGGGGAATGGAATTCTACAGGAGACTGGAGTCTTGCTTTGTGGATCCTTTTGGTCTCCGAGTCCTGCAGTCTGCAGGTGCTGCCCCTGGGAACCTGCGTGCCACAGCCCCGCCTCCCTGCCTGGAGCACACTTTAGAATTCTGAAGATGTGAAGCCTCTGTCTCACTGAGGATTTTAAAGGTCAATTATACTTTTGTTGTTCATTAGCATCTTTGTAAACTATAAGACGTAGTTTTAATTAATAAATATTGCCCCCAGATTGTATTT | 3.4 |

Reference: patent US20030092616A1, “STAT6 activation gene” (priority 2001, published 2003)
